From patent publication US20220324970A1 (Janssen / Centocor, published 2022)

T1: hpIgR domain-1 with teleost fish CDR2 (hD1 tCDR2) (human, UniProt P01833 19-127, limits assumed)
T1 construct: CDR-swapped hpIgR domain-1 mutant, HIS-tagged, made in HEK293 cells; not shown: HIS tag
T1 chain: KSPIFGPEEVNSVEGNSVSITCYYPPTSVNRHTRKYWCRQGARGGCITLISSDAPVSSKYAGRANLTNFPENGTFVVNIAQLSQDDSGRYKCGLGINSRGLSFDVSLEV

T2: mouse pIgR extracellular domain (ECD) (mouse, UniProt O70570 19-645)
T2 construct: The entry ends with a HHHHHH tag; also called mpIgR; mpIgR ectodomain
T2 sequence: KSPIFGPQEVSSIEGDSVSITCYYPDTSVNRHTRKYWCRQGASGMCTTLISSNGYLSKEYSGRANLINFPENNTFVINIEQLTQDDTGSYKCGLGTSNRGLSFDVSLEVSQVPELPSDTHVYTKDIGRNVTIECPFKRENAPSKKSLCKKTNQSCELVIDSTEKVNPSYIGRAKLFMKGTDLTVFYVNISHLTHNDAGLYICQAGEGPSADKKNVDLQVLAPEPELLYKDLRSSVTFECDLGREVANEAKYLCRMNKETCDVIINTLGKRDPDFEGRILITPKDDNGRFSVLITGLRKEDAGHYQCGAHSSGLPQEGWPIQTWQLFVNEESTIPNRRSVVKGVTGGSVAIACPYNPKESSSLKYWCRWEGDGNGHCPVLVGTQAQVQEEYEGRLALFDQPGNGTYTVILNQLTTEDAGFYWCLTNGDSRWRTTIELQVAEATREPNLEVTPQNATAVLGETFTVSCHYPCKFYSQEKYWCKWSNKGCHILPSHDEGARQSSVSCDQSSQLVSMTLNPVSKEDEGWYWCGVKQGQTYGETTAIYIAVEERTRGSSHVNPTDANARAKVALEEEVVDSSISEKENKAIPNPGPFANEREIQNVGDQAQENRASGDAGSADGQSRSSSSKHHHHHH

T3: human pIgR extracellular domain 4-domain 5 (D4-D5) (human, UniProt P01833 350-565)
T3 construct: HIS-tagged construct made in HEK293 cells; also called hpIgR domains 4-5
T3 chain: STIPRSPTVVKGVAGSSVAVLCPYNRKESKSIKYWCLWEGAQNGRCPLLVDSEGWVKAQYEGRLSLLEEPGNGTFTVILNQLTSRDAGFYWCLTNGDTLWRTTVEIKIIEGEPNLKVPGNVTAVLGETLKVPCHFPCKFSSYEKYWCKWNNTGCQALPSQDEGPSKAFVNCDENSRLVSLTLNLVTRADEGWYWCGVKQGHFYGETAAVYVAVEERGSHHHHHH


Legend:
[1] = molecular target: T4, human pIgR, full-length, on cells (human, UniProt P01833 19-764); assay: cell-based or functional assay
[2] = molecular target: T4, human pIgR, full-length, on cells; assay: cell-based or functional assay; remark: listed apart in the source
[3] = molecular target: T4, human pIgR, full-length, on cells; assay: cell-based or functional assay; remark: listed apart in the source
[4] = molecular target: T5, human pIgR extracellular domain (ECD) (human, UniProt P01833 19-638); assay: BLI (Octet), VHH-mono-Fc and hpIgR ectodomain
T5 construct: also called hpIgR ECD

[5] = molecular target: T5, human pIgR extracellular domain (ECD); assay: ECL (MSD), hpIgR-ECD coated, anti-VHH detection
Experimental: To check whether VHH recognizes a buried epitope on pIgR, EC₅₀ values were measured for VHH-mono-Fc molecules binding to hpIgR-ECD protein by electrochemiluminescence using two different detection antibodies, an anti-Fc antibody and an anti-VHH antibody. pIgR ECD (10 μg/ml in PBS) was coated on high-bind MSD plates for 2 hours at RT with 1000 rpm, incubated with blocking buffer for 1 hour at RT, incubated with VHH-mono-Fc molecules (increasing concentrations in PBS) for 2 hours at RT with 1000 rpm, washed 3× with PBT, incubated with ruthenylated secondary antibody (2 μg/ml in PBS) for 1 hour at RT with 1000 rpm, washed 3× with PBT and read plates in 40 ul reading buffer using the MSD imager. EC50 was calculated by fitting log VHH concentration versus log ECLU in Prism (Graphpad). The increase in EC₅₀ (>50-fold) due to anti-VHH detection was used as a measure to determine whether VHH recognized buried epitope on pIgR.

[6] = molecular target: T1, hpIgR domain-1 with teleost fish CDR2 …; assay: BLI, HIS-tagged construct on anti-HIS biosensors
Experimental: (§1) Bio-layer Interferometry was performed as follows. […] Data were collected with Octet Data Acquisition version 7.1.0.87 (ForteBio) and analyzed using Octet Data Analysis version 7.1 (ForteBio). To measure binding kinetics between VHH-mono-Fc molecules and HIS-tagged pIgR proteins, VHH-mono-Fc was immobilized on amine-reactive generation-2 (ARG2) biosensors according to manufacturer's instructions and increasing concentrations of pIgR proteins were exposed to sensor-immobilized VHH. In some cases, HIS-tagged pIgR proteins were immobilized on anti-HIS biosensors and exposed to increasing concentrations of VHH-mono-Fc molecules. Association and dissociation rates were measured by the shift in wavelength (nm). […] All reactions were performed at 25° C. in PBS.
(§2) (Full-length hpIgR ECD was purchased from R&D Systems.) The five constructs (D1-D2, D1, D1_tCDR1, D1_tCDR2, D1_tCDR3) were expressed and purified from HEK293 cells using immobilized metal ion affinity chromatography. Three hpIgR domain-1 CDR mutants (D1_tCDR1, D1_tCDR2, D1_tCDR3) contain respective teleost fish CDR on a hpIgR domain-1 framework. His-tagged pIgR constructs were immobilized on anti-HIS biosensors and binding of VHH-mono-Fc molecules to pIgR constructs were measured by bio-layer interferometry.

[7] = molecular target: T5, human pIgR extracellular domain (ECD); assay: BLI; summary table, repeats Table 1; summary Table 4
[8] = molecular target: T5, human pIgR extracellular domain (ECD); assay: BLI, HIS-tagged pIgR construct on anti-HIS biosensors
Experimental: as §1, §2

[9] = molecular target: T5, human pIgR extracellular domain (ECD); assay: ECL (MSD), anti-VHH detection against anti-Fc detection
[10] = molecular target: T5, human pIgR extracellular domain (ECD); assay: BLI, screen of the VHH clones generated from mpIgR antigen
[11] = molecular target: T2, mouse pIgR extracellular domain (ECD); assay: as above
[12] = molecular target: T4, human pIgR, full-length, on cells; assay: flow cytometry on MDCK-hpIgR cells; summary table, repeats Table 1
Experimental: Flow Cytometry was performed as follows. To test whether VHH-mono-Fc molecules recognize cell-surface hpIgR, Madin-Darby canine kidney (MDCK) cells engineered to express full-length hpIgR were used. Cells were cultured in Dulbecco's modified Eagle's medium containing 10% fetal calf serum at 37° C. with 5% CO₂. Cells were split into equal fractions (≈70,000 cells) and incubated with increasing concentrations of VHH-mono-Fc molecules for 30 min at 4 C. […] Cells were washed twice with cold staining buffer, resuspended in running buffer and analyzed with an iQue Screener (IntelliCyt Corporation). Binding was assessed by RL1 (A647) Geomeans from the live cell population and EC50 was calculated by fitting log VHH concentration versus MFI in Prism (Graphpad).

[13] = molecular target: T3, human pIgR extracellular domain …; assay: ECL (MSD) heat map, HIS-tagged construct captured via anti-HIS, anti-human-Fc detection
Experimental: The Electrochemiluminescence assay was performed as follows. A meso-scale discovery (MSD) platform was used for conducting epitope mapping and epitope burial studies. To test the binding of VHH-mono-Fc molecules to purified pIgR protein constructs, Streptavidin MSD plates were coated with a biotinylated anti-HIS antibody (2 μg/ml in PBS) for 1 hour at RT with 1000 rpm, washed 3× with PBT (PBS+0.1% Tween-20), incubated with blocking buffer for 1 hour at RT, incubated with His-tagged pIgR proteins (10 μg/ml in PBS) for 2 hours at RT with 1000 rpm, washed 3× with PBT, incubated with VHH-mono-Fc molecules (100 μg/ml in PBS) for 2 hours at RT with 1000 rpm, washed 3× with PBT, incubated with ruthenylated-anti-human-Fc antibody (2 μg/ml in PBS) for 1 hour at RT with 1000 rpm, washed 3× with PBT and read plates in 40 ul reading buffer using the MSD imager. ECLU values were plotted as a heatmap.

[14] = molecular target: T6, human pIgR extracellular domain 1 (D1) (human, UniProt P01833 19-127); assay: ECL (MSD); headed 'Anti-Fc' on the sheet, but its ECD values are the anti-VHH values of Table 2, so anti-VHH detection
T6 construct: HIS-tagged construct made in HEK293 cells; also called hpIgR domain-1

[15] = molecular target: T5, human pIgR extracellular domain (ECD); assay: BLI; summary table, repeats Table 1
[16] = molecular target: T2, mouse pIgR extracellular domain (ECD); assay: BLI, screen of the VHH clones generated from hpIgR antigen
[17] = molecular target: T5, human pIgR extracellular domain (ECD); assay: BLI, HIS-tagged pIgR construct on anti-HIS biosensors; HIS-tagged hpIgR_ECD on anti-HIS biosensors, Table 3
Experimental: as §1, §2

T5 sequence (P01833 other isoform, or with tags, fused parts or gaps): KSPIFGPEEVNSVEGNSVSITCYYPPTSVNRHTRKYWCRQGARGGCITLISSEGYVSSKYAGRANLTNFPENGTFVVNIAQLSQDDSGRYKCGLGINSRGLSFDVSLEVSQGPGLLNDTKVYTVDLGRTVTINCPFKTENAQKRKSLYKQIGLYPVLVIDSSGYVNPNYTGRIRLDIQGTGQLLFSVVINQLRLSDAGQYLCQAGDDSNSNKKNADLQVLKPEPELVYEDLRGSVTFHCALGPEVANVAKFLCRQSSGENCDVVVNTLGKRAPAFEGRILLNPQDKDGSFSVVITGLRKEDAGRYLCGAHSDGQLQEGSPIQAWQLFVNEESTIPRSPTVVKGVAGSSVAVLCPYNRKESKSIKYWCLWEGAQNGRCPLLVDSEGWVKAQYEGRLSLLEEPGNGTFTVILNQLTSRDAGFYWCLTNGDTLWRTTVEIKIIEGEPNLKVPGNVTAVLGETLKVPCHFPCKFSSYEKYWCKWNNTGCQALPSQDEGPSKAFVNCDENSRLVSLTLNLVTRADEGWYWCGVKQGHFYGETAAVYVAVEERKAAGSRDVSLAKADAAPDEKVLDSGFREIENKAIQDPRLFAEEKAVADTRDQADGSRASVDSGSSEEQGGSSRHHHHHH
T4 sequence (P01833 19-764): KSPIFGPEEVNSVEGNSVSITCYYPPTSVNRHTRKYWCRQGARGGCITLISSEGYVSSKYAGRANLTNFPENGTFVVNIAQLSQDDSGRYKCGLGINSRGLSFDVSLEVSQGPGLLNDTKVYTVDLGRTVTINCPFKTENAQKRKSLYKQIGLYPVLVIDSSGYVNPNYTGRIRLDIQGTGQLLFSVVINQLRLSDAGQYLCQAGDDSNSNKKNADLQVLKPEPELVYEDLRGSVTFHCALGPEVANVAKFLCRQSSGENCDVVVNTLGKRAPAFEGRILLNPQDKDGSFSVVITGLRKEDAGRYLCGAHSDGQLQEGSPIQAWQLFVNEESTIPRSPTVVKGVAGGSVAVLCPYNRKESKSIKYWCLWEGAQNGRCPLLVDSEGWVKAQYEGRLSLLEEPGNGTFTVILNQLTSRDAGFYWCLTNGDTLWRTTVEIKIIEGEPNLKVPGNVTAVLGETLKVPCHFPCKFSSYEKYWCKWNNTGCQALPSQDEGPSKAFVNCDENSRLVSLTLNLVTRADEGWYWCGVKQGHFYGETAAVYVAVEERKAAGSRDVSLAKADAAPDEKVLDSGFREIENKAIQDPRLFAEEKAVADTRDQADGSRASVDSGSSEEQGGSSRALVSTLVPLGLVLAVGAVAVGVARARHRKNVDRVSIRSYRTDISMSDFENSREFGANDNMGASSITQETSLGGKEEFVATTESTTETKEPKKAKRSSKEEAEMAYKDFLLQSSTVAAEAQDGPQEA
T6 sequence (P01833 other isoform, or with tags, fused parts or gaps limits assumed): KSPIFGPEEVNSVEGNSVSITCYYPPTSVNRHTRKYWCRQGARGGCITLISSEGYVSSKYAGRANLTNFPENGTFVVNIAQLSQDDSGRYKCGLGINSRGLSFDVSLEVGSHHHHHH

Row | Binder | increase in their apical concentration relative to control VHH (MDCK-hpIgR monolayers) [1] [fold] | Transcytosis (Fold Incr.) [2] [fold] | For. Trans. (Fold Incr.) [3] [fold] | Rev. Trans (Fold Incr.) [3] [fold] | Kd [4] [nM] | EC50 [5] [nM] | binding result [6] | Kd [7] [nM] | Kd [8] [nM] | Fold change in EC50 [9] [fold] | Kd [10] [nM] | Kd [11] [nM] | EC50 [12] [nM] | binding result [13] | EC50 [14] [nM] | Kd [15] [nM] | Kd [16] [nM] | Kd [17] [nM]
1 | VHH2-linker-mono-Fc protein (Fc fusion, also called VHH2-mono-Fc; mpIgR_338) EVQVVESGGGLVQAGGSLKLACAAPGLTFSSYRMGWFRQAPGQEREFVAAIDWNGRGTYYRYYADSVKGRSTISRDNAKNTVYLQMNSLKPEDTAVYYCAATTVLTDPRVLNEYATWGQGTQVTVSSEPKTPKPQPQPQLQPQPNPTTESKSPKSPAPELLGGPSVFLFPPKPKDTLMISRTPEVTCVVVDVSHEDPEVKFNWYVDGVEVHNAKTKPREEQYNSTYRVVSVLTVLHQDWLNGKEYKCKVSNKALPAPIEKTISKAKGQPREPQVYTKPPSREEMTKNQVSLSCLVKGFYPSDIAVEWESNGQPENNYKTTVPVLDSDGSFRLASYLTVDKSRWQQGNVFSCSVMHEALHNHYTQKSLSLSPGK | > 10 | 34.2 | 21 | 5.7 | 21 | 4 | no binding | 21 | 22 | 1 | 22 | 1 | 6.3 | no binding (tested: 100 ug/ml (single concentration)) | 8.1 | – | – | –
2 | VHH3-linker-mono-Fc protein (Fc fusion, made in CHO cells; also called VHH3-mono-Fc; hpIgR_021) QLQLVESGGGLVQPGGSLRLSCAASGSIFSINVMGWYRQAPGKQRELVARINGGGITHYAESVKGRFTISRDNAKNTVYLQMNSLKPEDTAAYYCKADVFGSSGYVETYWGQGTQVTVSSEPKTPKPQPQPQLQPQPNPTTESKSPKSPAPELLGGPSVFLFPPKPKDTLMISRTPEVTCVVVDVSHEDPEVKFNWYVDGVEVHNAKTKPREEQYNSTYRVVSVLTVLHQDWLNGKEYKCKVSNKALPAPIEKTISKAKGQPREPQVYTKPPSREEMTKNQVSLSCLVKGFYPSDIAVEWESNGQPENNYKTTVPVLDSDGSFRLASYLTVDKSRWQQGNVFSCSVMHEALHNHYTQKSLSLSPGK | – | 2.6 | 1 | 1 | 5 | 28.6 | no binding | – | – | 54 | – | – | 6.4 | – | 17.6 | 5 | 40 | 10
